The target of this test is yeast microtubules (assembled from tubulin purified from yeast, Tub1/Tub2-6His) (yeast, UniProt P09733 1-447; P02557 1-457). The experiment in a line: TIRF microscopy-based microtubule-binding assay.
yeast microtubules (assembled from tubulin purified from yeast, Tub1/Tub2-6His), sequence (P09733 whole entry, chain 1 of 2): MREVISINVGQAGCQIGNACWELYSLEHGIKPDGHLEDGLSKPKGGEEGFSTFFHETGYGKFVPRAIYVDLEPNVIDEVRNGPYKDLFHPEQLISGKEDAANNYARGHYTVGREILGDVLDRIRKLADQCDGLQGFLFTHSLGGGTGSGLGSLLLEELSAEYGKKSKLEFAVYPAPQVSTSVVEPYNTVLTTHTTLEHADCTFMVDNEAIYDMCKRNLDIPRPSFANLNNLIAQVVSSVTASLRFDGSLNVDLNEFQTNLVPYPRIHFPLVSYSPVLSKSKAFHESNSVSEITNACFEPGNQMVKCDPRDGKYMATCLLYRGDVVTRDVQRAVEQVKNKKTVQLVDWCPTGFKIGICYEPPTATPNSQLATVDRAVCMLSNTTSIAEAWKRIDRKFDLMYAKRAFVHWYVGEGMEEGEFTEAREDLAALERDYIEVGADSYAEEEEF
yeast microtubules (assembled from tubulin purified from yeast, Tub1/Tub2-6His), sequence (P02557 whole entry, chain 2 of 2): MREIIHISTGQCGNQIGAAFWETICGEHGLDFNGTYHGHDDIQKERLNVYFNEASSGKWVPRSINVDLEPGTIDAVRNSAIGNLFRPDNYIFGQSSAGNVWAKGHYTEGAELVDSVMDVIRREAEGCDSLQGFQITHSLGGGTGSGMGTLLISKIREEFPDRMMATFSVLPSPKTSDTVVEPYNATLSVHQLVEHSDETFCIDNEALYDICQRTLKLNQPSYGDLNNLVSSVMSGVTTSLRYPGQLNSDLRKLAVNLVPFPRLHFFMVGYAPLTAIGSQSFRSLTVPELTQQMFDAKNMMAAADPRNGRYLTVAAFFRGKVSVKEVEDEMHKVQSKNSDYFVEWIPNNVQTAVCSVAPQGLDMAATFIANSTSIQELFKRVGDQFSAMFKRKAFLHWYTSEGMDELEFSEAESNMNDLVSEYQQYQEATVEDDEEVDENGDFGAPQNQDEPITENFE

B1: She1-NLS^SV40-HaloTag (other)
chain: MNDKLQEEHNEKDTTSQINGFTPPHMSIDFHSNNNSNIIETIGVSKRLGNSVLSELDSRASSKFEFLKDQSEQQYNGDKNNEPKSGSYNINEFFQAKHDSQFGQMESLDTHYTLLHTPKRKSQHAIPQDRSDSMKRSRPSRSIPYTTPVVNDITRRIRRLKLRNSLVNGNDIVARARSMQANSNINSIKNTPLSKPKPFMHKPNFLMPTTNSLNKINSAHRNTSSSSTASSIPRSKVHRSISIRDLHAKTKPVERTPVAQGTNSQLKNSVSVFDRLYKQTTFSRSTSMNNLSSGTSAKSKEHTNVKTRLVKSKTSGSLSSNLKQSTATGTKSDRPIWRGSGSAAAPKKKRKVG
modifications: HaloTag-TMR ligand on the HaloTag
Take B1: the Kd worked out at 806 nM. This counts as sub-micromolar.

B2: She1-HaloTag^TMR (wild-type She1) (natural protein, budding yeast, UniProt P38200 1-338, looked up)
chain: MNDKLQEEHNEKDTTSQINGFTPPHMSIDFHSNNNSNIIETIGVSKRLGNSVLSELDSRASSKFEFLKDQSEQQYNGDKNNEPKSGSYNINEFFQAKHDSQFGQMESLDTHYTLLHTPKRKSQHAIPQDRSDSMKRSRPSRSIPYTTPVVNDITRRIRRLKLRNSLVNGNDIVARARSMQANSNINSIKNTPLSKPKPFMHKPNFLMPTTNSLNKINSAHRNTSSSSTASSIPRSKVHRSISIRDLHAKTKPVERTPVAQGTNSQLKNSVSVFDRLYKQTTFSRSTSMNNLSSGTSAKSKEHTNVKTRLVKSKTSGSLSSNLKQSTATGTKSDRPIWR
modifications: HaloTag-TMR ligand on the HaloTag
B2 gave a Kd of 854 nM.

The term Kd denotes the equilibrium constant for the complex coming apart. The low end stands for tighter binding, the high end for weaker binding.
